The results in this text go back to patent US11155602B2, “Polypeptides targeting HIV fusion” (priority 2015, dated 2021).

Changes are numbered by the printed parent chain.

This experiment relates to NL-Rluc virus. Kind of experiment: Combinectin potency assay: antiviral EC50, NL-Rluc virus in MT-2 cells, luciferase readout. The class given is cell-based, HIV-1. The following applies: Anti-N17 Adnectin, Table 3. The gist of the method:
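MT-2 cells infected with replication-competent NL-Rluc HIV (nef replaced by Renilla luciferase) at MOI 0.01 for 1 h, then added to threefold-diluted peptides (11 concentrations, triplicate). After 4–5 days, luciferase measured by Dual Luciferase; EC50 relative to no-peptide wells.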

B1: 127 (protein)
chain: MGHHHHHHGGVSDVPRDLEVVAATPTSLLISWQYKVHPYRYYRITYGETGGNSPVQEFTVPSVLSSAQISGLKPGVDYTITVYAVTYGIESSPISINYRTPGG
modifications: Adnectin
For B1, the EC50 came to 9 nM.

B2: 128 (protein)
chain: B1 chain with Q33E, Q68E, E90D
modifications: Adnectin
Regarding B2, the concentration giving a half-maximal response (EC50) turned out to be 18 nM.

B3: 239 (protein)
chain: MGVSDVPRDLEVVAATPTSLLISWQYKVHPYRWYRITYGETGGNSPVQEFTVPSVLSTATISGLKPGVDYTITVYAVTYGVNSIPISINYRTEIDKPSQHHHHHH
modifications: Adnectin
On to B3, for which the EC50 worked out at 4 nM.

B4: 126 (protein)
chain: B3 chain with Q25E, W33Y, V81I, N82Q, I84P
modifications: Adnectin
For the molecule B4, the EC50 amounted to 8 nM.

B5: 241 (protein)
chain: B3 chain with Q25E, H29N, Y31W, W33Y, I84L
modifications: Adnectin
In the case of B5, the EC50 came out at 8 nM.

B6: 243 (protein)
chain: B3 chain with Q25E, H29N, Y31W, W33Y, N82D, I84D
modifications: Adnectin
As for B6, the EC50 stood at 48 nM.

B7: 240 (protein)
chain: B3 chain with Q25E, H29S, W33Y
modifications: Adnectin
Turning to B7, the EC50 was determined as 5 nM.

B8: 244 (protein)
chain: B3 chain with Q25E, H29D, W33Y, N82D, I84D
modifications: Adnectin
On to B8, for which the EC50 came out at 58 nM.

B9: 129 (protein)
chain: B3 chain with Q25E, W33Y, T58S, T60E, V81I, N82D, I84P
modifications: Adnectin
Turning to B9, the EC50 came out at 11 nM.

B10: 245 (protein)
chain: MGHHHHHHGGSVSDVPRDLEVVAATPTSLLISWKYQVHAYRYYRITYGETGGNSPVQEFTVPSVLSTATINGLKPGVDYTITVYAVTYGIISEPISINYRTEID
modifications: Adnectin
Consider B10, for which the EC50 worked out at 50 nM.

B11: 271 (protein)
chain: B10 chain with K34E, Q36K, H38D, A39G, N71S, I90D, I91D, E93A
modifications: Adnectin
For B11, the EC50 is more than 1000 nM.

B12: 246 (protein)
chain: B10 chain with K34E, Q36K, H38N, A39Y, Y40N, N71S, Y88E, I90V, I91Q, E93A
modifications: Adnectin
Consider B12, for which the EC50 was more than 1000 nM.

B13: 130 (protein)
chain: B10 chain with K34E, Q36N, A39Y, Y40D, N71S, Y88D, I90V, I91H, E93S
modifications: Adnectin
In the case of B13, the EC50 was 42 nM.

B14: 250 (protein)
chain: B10 chain with K34E, Q36K, A39P, T67S, T69K, N71S, I90D, I91D, E93A
modifications: Adnectin
As for B14, the EC50 was 218 nM.

B15: 253 (protein)
chain: B10 chain with K34E, Q36K, H38D, N71S, I90D, I91D, E93A
modifications: Adnectin
Take B15: the EC50 was more than 1000 nM.

B16: 265 (protein)
chain: B10 chain with K34E, Q36K, A39P, N71S, I90A, I91D, E93A
modifications: Adnectin
For the molecule B16, the EC50 was 63 nM.

B17: 255 (protein)
chain: B10 chain with K34E, Q36K, A39P, N71S, I90D, I91D, E93A
modifications: Adnectin
As for B17, the EC50 amounted to 136 nM.

B18: 252 (protein)
chain: B10 chain with K34E, Q36K, H38A, A39H, Y40R, N71S, I90D, I91D, E93A
modifications: Adnectin
With B18, the EC50 is more than 1000 nM.

B19: 278 (protein)
chain: B10 chain with K34E, Q36K, H38A, A39R, Y40W, N71S, I90D, I91D, E93A
modifications: Adnectin
Turning to B19, the EC50 was more than 1000 nM.

B20: 275 (protein)
chain: B10 chain with K34E, Q36K, A39P, E58S, N71S, I90A, I91D, E93A
modifications: Adnectin
For B20, the EC50 came out at 180 nM.

B21: 277 (protein)
chain: B10 chain with K34E, Q36K, A39P, E58D, N71S, I90D, I91D, E93A
modifications: Adnectin
B21: the EC50 is more than 1000 nM.

B22: 258 (protein)
chain: B10 chain with K34E, Q36K, A39P, T67S, N71R, I90D, I91D, E93A
modifications: Adnectin
B22: the EC50 worked out at 195 nM.

B23: 260 (protein)
chain: B10 chain with K34E, Q36K, A39P, T60R, N71S, I90D, I91D, E93A
modifications: Adnectin
With B23, the EC50 was 188 nM.

B24: 256 (protein)
chain: B10 chain with K34E, Q36K, A39P, N71S, I90D, I91A, E93A
modifications: Adnectin
With B24, the EC50 was found to be 170 nM.

B25: 285 (protein)
chain: B10 chain with K34E, Q36K, A39P, T67S, I70L, N71R, I90D, I91D, E93A
modifications: Adnectin
On to B25, for which the EC50 is 397 nM.

B26: 257 (protein)
chain: B10 chain with K34E, Q36K, A39P, N71S, Y88N, I90D, I91D, E93A
modifications: Adnectin
On to B26, for which the concentration giving a half-maximal response (EC50) is more than 1000 nM.

B27: 284 (protein)
chain: B10 chain with K34E, Q36K, A39P, N71S, Y88S, I90D, I91D, E93A
modifications: Adnectin
On to B27, for which the EC50 is more than 1000 nM.

B28: 249 (protein)
chain: B10 chain with K34E, Q36K, A39P, T67S, I70L, I90D, I91D, E93A
modifications: Adnectin
For the molecule B28, the 50% effective concentration (EC50) worked out at 83 nM.

B29: 267 (protein)
chain: B10 chain with K34E, Q36K, A39P, E58D, N71R, I90D, I91D, E93A
modifications: Adnectin
For the molecule B29, the EC50 is more than 1000 nM.

B30: 283 (protein)
chain: B10 chain with K34E, Q36K, A39P, N71S, Y88D, I90D, I91D, E93A
modifications: Adnectin
As for B30, the EC50 is more than 1000 nM.

B31: 248 (protein)
chain: B10 chain with K34E, Q36K, A39P, S54T, T60R, N71S, G89A, I90D, I91A, E93A
modifications: Adnectin
On to B31, for which the EC50 was more than 1000 nM.

B32: 274 (protein)
chain: B10 chain with K34E, Q36R, A39P, N71S, I90D, I91D, E93A
modifications: Adnectin
Consider B32, for which the EC50 was determined as 115 nM.

B33: 251 (protein)
chain: B10 chain with K34E, Q36K, A39P, T60N, N71S, I90D, I91D, E93A
modifications: Adnectin
Regarding B33, the EC50 turned out to be 186 nM.

B34: 282 (protein)
chain: B10 chain with K34E, Q36S, A39P, N71S, I90D, I91D, E93A
modifications: Adnectin
As to B34, the EC50 amounted to 56 nM.

B35: 269 (protein)
chain: B10 chain with K34E, Q36K, A39P, E58A, N71S, I90D, I91D, E93A
modifications: Adnectin
Consider B35, for which the EC50 stood at 184 nM.

B36: 259 (protein)
chain: B10 chain with K34E, Q36K, A39P, T69K, N71S, I90D, I91D, E93A
modifications: Adnectin
As to B36, the EC50 turned out to be 135 nM.

B37: 263 (protein)
chain: B10 chain with K34E, Q36K, H38D, A39T, Y40W, N71S, I90D, I91D, E93A
modifications: Adnectin
As to B37, the EC50 was more than 1000 nM.

B38: 254 (protein)
chain: B10 chain with K34E, Q36K, H38D, A39S, N71S, I90D, I91D, E93A
modifications: Adnectin
On to B38, for which the EC50 was more than 1000 nM.

B39: 280 (protein)
chain: B10 chain with K34E, Q36K, H38D, A39Y, Y40G, N71S, I90D, I91D, E93A
modifications: Adnectin
Take B39: the EC50 was more than 1000 nM.

B40: 261 (protein)
chain: B10 chain with K34E, Q36K, H38A, A39P, Y40W, N71S, I90D, I91D, E93A
modifications: Adnectin
As to B40, the EC50 is more than 1000 nM.

B41: 272 (protein)
chain: B10 chain with K34E, Q36K, H38D, A39T, N71S, I90D, I91D, E93A
modifications: Adnectin
Turning to B41, the concentration for a half-maximal effect (EC50) is more than 1000 nM.

B42: 279 (protein)
chain: B10 chain with K34E, Q36K, H38D, A39H, Y40Q, N71S, I90D, I91D, E93A
modifications: Adnectin
Take B42: the EC50 is more than 1000 nM.

B43: 270 (protein)
chain: B10 chain with K34E, Q36K, H38A, A39P, N71S, I90D, I91D, E93A
modifications: Adnectin
With B43, the EC50 is more than 1000 nM.

B44: 266 (protein)
chain: B10 chain with K34E, Q36K, A39P, N71S, Y88R, I90D, I91D, E93A
modifications: Adnectin
Regarding B44, the EC50 is more than 1000 nM.

B45: 273 (protein)
chain: B10 chain with K34E, Q36E, A39P, N71S, I90D, I91D, E93A
modifications: Adnectin
As for B45, the EC50 is more than 1000 nM.

B46: 276 (protein)
chain: B10 chain with K34E, Q36K, A39P, N71R, I90D, I91D, E93A
modifications: Adnectin
B46: the EC50 came to 16 nM.

B47: 262 (protein)
chain: B10 chain with K34E, Q36K, H38D, A39G, Y40W, N71S, I90D, I91D, E93A
modifications: Adnectin
As to B47, the EC50 is more than 1000 nM.

B48: 281 (protein)
chain: B10 chain with Q36G, A39P, N71S, I90D, I91D, E93A
modifications: Adnectin
B48: the EC50 was more than 1000 nM.
